Assay results: patent US20220088190A1 (University of Pennsylvania, published 2022)

Assays:
[1] = biological target: T1, HLA-A*11:01 expressed on monoallelic K562 RAS TMG cells (human); assay: HLA class I immunoprecipitation, peptide elution and tandem MS/MS from monoallelic K562 RAS TMG cells (FIG. 8F)
T1 construct: also called K562-A*11:01

HLA-A*11:01 = biological target: T2, HLA-A*11:01 (human); assay: peptide-MHC binding, competitive fluorescence polarization assay
T2 construct: the construct is not described

[2] = biological target: T3, HLA-A*03:01 expressed on monoallelic K562 RAS TMG cells (human); assay: HLA class I immunoprecipitation, peptide elution and tandem MS/MS from monoallelic K562 RAS TMG cells (FIG. 8A)
T3 construct: also called K562-A*03:01

[3] = biological target: T1, HLA-A*11:01 expressed on monoallelic …; assay: HLA class I immunoprecipitation, peptide elution and tandem MS/MS from monoallelic K562 RAS TMG cells (FIG. 8G)
[4] = biological target: T3, HLA-A*03:01 expressed on monoallelic …; assay: HLA class I immunoprecipitation, peptide elution and tandem MS/MS from monoallelic K562 RAS TMG cells (FIG. 8C)
HLA-A*03:01 = biological target: T4, HLA-A*03:01 (human); assay: peptide-MHC binding, competitive fluorescence polarization assay
T4 construct: the construct is not described

HLA-B*07:02 = biological target: T5, HLA-B*07:02 (human); assay: as above
T5 construct: the construct is not described

[5] = biological target: T6, HLA-B*07:02 expressed on monoallelic K562 RAS TMG cells (human); assay: HLA class I immunoprecipitation, peptide elution and tandem MS/MS from monoallelic K562 RAS TMG cells (FIG. 8J)
T6 construct: also called K562-B*07:02

[6] = biological target: T3, HLA-A*03:01 expressed on monoallelic …; assay: HLA class I immunoprecipitation, peptide elution and tandem MS/MS from monoallelic K562 RAS TMG cells (FIG. 8D)
[7] = biological target: T1, HLA-A*11:01 expressed on monoallelic …; assay: HLA class I immunoprecipitation, peptide elution and tandem MS/MS from monoallelic K562 RAS TMG cells (FIG. 8I)
[8] = biological target: T1, HLA-A*11:01 expressed on monoallelic …; assay: HLA class I immunoprecipitation, peptide elution and tandem MS/MS from monoallelic K562 RAS TMG cells (FIG. 8E)

B1: mRAS peptide VVV_D (RAS G12D), VVVGADGVGK (peptide)
peptide: VVVGADGVGK
notes: 10-mer mutant RAS short peptide; also called D-10
B1: binds [1]; binds (HLA-A*11:01); binds [2].

B2: mRAS peptide VVV_V (RAS G12V), VVVGAVGVGK (peptide)
peptide: VVVGAVGVGK
notes: 10-mer mutant RAS short peptide; also called V-10
B2: binds [3]; binds [4]; binds (HLA-A*03:01). B2: binds (HLA-A*11:01).

B3: mRAS peptide VV_C (RAS G12C), VVGACGVGK (peptide)
peptide: VVGACGVGK
notes: 9-mer mutant RAS short peptide; also called C-9
B3: binds (HLA-A*11:01).

B4: mRAS peptide GA_R (RAS G12R), GARGVGKSAL (peptide)
peptide: GARGVGKSAL
notes: 10-mer mutant RAS short peptide; also called R-10 (B*07:02 panel)
B4: binds (HLA-B*07:02); binds [5].

B5: mRAS peptide VV_R (RAS G12R), VVGARGVGK (peptide)
peptide: VVGARGVGK
notes: 9-mer mutant RAS short peptide; also called R-9
B5: binds [6]; binds [7]; binds (HLA-A*11:01).

B6: mRAS peptide VV_D (RAS G12D), VVGADGVGK (peptide)
peptide: VVGADGVGK
notes: 9-mer mutant RAS short peptide; also called D-9
B6: binds [8]; binds (HLA-A*11:01).

B7: mRAS peptide VVV_R (RAS G12R), VVVGARGVGK (peptide)
peptide: VVVGARGVGK
notes: 10-mer mutant RAS short peptide; also called R-10
B7: binds (HLA-A*03:01); binds (HLA-A*11:01).
